Patent publication US20220041658A1 (PROTAGONIST THERAPEUTICS, published 2022)
Positions of bridges follow the written chain, without caps; N, C: chain ends. Non-standard residues stand in square brackets, D forms with d. Trp(7-Me) = Cc1cccc2c(C[C@H](N)C(=O)O)c[nH]c12; 2Nal = N[C@@H](Cc1ccc2ccccc2c1)C(=O)O; d2Nal = N[C@H](Cc1ccc2ccccc2c1)C(=O)O; AEF = NCCOc1ccc(C[C@H](N)C(=O)O)cc1; Cit = NC(=O)NCCC[C@H](N)C(=O)O; Pen = CC(C)(S)[C@H](N)C(=O)O; αMeK = C[C@](N)(CCCCN)C(=O)O; Aib = CC(C)(N)C(=O)O; βAla = NCCC(=O)O

T1: interleukin-23 receptor (IL-23R) (human, UniProt Q5VWK5 24-629)
T1 sequence (looked up): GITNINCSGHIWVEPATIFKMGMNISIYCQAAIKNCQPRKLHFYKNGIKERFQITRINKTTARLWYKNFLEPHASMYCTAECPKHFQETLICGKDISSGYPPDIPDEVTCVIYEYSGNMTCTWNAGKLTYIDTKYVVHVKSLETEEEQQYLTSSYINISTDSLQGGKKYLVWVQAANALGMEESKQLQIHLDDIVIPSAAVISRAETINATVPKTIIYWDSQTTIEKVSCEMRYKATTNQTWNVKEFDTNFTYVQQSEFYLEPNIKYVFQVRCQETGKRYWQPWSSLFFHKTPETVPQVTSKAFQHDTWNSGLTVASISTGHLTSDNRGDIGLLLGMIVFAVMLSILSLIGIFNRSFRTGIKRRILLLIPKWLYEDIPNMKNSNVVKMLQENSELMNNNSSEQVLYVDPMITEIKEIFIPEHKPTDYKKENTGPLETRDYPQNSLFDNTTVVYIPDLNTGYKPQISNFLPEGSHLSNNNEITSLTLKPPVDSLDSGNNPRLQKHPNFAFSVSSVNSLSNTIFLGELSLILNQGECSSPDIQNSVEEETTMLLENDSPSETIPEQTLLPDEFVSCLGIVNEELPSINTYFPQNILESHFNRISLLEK

B1: Peptide of SEQ ID NO: 351 (peptide)
peptide: XNTXKXXXXKNK
modifications: Ac-[Pen]-N-T-[W(2-Me)]-[Lys(Ac)]-[Pen]-Phe[4-(2-aminoethoxy)]-[2-Nal]-[a-MeLys]-[Lys(Ac)]-N-[(D)Lys]-NH2; Pen-Pen disulfide
B2: Peptide of SEQ ID NO: 219 (peptide)
peptide: XNTXQXXXXGPX
modifications: Ac-[Pen]-NT-[W(7-Me)]-Q-[Pen]-Phe[4-(2-aminoethoxy)]-[2-Nal]-[a-MeLeu]-G-P-[bA]-NH2; Pen-Pen disulfide
B3: Peptide of SEQ ID NO: 220 (peptide)
peptide: XNTXQXXXXGPX
modifications: Ac-[Pen]-NT-[W(7-Me)]-Q-[Pen]-Phe[4-(2-aminoethoxy)]-[2-Nal]-[a-MeLeu]-G-[(D)Pro]-[bA]-NH2; Pen-Pen disulfide
B4: Peptide of SEQ ID NO: 222 (peptide)
peptide: XNTXQXXXXKSX
modifications: Ac-[Pen]-NT-[W(7-Me)]-Q-[Pen]-Phe[4-(2-aminoethoxy)]-[2-Nal]-[a-MeLeu]-[Lys(Ac)]-[(D)Ser]-[bA]-NH2; Pen-Pen disulfide
B5: Peptide of SEQ ID NO: 228 (peptide)
peptide: XNTXQXXXXKNX
modifications: Ac-[Pen]-NT-[W(6-Cl)]-Q-[Pen]-Phe[4-(2-aminoethoxy)]-[2-Nal]-[a-MeLys]-[Lys(Ac)]-N-[bA]-NH2; Pen-Pen disulfide
B6: Peptide of SEQ ID NO: 229 (peptide)
peptide: XNTXQXXXXKNX
modifications: Ac-[Pen]-NT-[W(4-OMe)]-Q-[Pen]-Phe[4-(2-aminoethoxy)]-[2-Nal]-[a-MeLys]-[Lys(Ac)]-N-[bA]-NH2; Pen-Pen disulfide
B7: Peptide of SEQ ID NO: 231 (peptide)
peptide: XNTXQXXXXKNX
modifications: Ac-[Pen]-NT-[W(4-Me)]-Q-[Pen]-Phe[4-(2-aminoethoxy)]-[2-Nal]-[a-MeLys]-[Lys(Ac)]-N-[bA]-NH2; Pen-Pen disulfide
B8: Peptide of SEQ ID NO: 233 (peptide)
peptide: XNTXQXXXXKNX
modifications: Ac-[Pen]-NT-[W(2,5,7-tritBu)]-Q-[Pen]-Phe[4-(2-aminoethoxy)]-[2-Nal]-[a-MeLys]-[Lys(Ac)]-N-[bA]-NH2; Pen-Pen disulfide
B9: Peptide of SEQ ID NO: 237 (peptide)
peptide: XQTXQXXXXKNX
modifications: Ac-[Pen]-Q-T-[W(7-Me)]-Q-[Pen]-Phe[4-(2-aminoethoxy)]-[2-Nal]-[a-MeLys]-[Lys(Ac)]-N-[bA]-NH2; Pen-Pen disulfide
B10: Peptide of SEQ ID NO: 204 (peptide)
peptide: XQTXQCXXXENX
modifications: Ac-Abu-Q-T-[W(7-Me)]-Q-C-Phe[4-(2-aminoethoxy)]-[2-Nal]-[THP]-E-N-[bA]-NH2; Abu-Cys thioether
B11: Peptide of SEQ ID NO: 240 (peptide)
peptide: Ac-[Pen][Aib]T[Trp(7-Me)]Q[Pen][AEF][2Nal][αMeK]K(Ac)N[βAla]-NH2
modifications: disulfide 1-6
SMILES: CC(=O)NCCCC[C@H](NC(=O)[C@](C)(CCCCN)NC(=O)[C@H](Cc1ccc2ccccc2c1)NC(=O)[C@H](Cc1ccc(OCCN)cc1)NC(=O)[C@H]1NC(=O)[C@H](CCC(N)=O)NC(=O)[C@H](Cc2c[nH]c3c(C)cccc23)NC(=O)[C@H]([C@@H](C)O)NC(=O)C(C)(C)NC(=O)[C@@H](NC(C)=O)C(C)(C)SSC1(C)C)C(=O)N[C@@H](CC(N)=O)C(=O)NCCC(N)=O
B12: Peptide of SEQ ID NO: 241 (peptide)
peptide: Ac-[Pen]NT[Trp(7-Me)][Aib][Pen][AEF][2Nal][αMeK]K(Ac)N[βAla]-NH2
modifications: disulfide 1-6
SMILES: CC(=O)NCCCC[C@H](NC(=O)[C@](C)(CCCCN)NC(=O)[C@H](Cc1ccc2ccccc2c1)NC(=O)[C@H](Cc1ccc(OCCN)cc1)NC(=O)[C@H]1NC(=O)C(C)(C)NC(=O)[C@H](Cc2c[nH]c3c(C)cccc23)NC(=O)[C@H]([C@@H](C)O)NC(=O)[C@H](CC(N)=O)NC(=O)[C@@H](NC(C)=O)C(C)(C)SSC1(C)C)C(=O)N[C@@H](CC(N)=O)C(=O)NCCC(N)=O
B13: Peptide of SEQ ID NO: 243 (peptide)
peptide: XNTXKXXXXKNR
modifications: Ac-[Pen]-NT-[W(7-Me)]-[Lys(Ac)]-[Pen]-Phe[4-(2-aminoethoxy)]-[2-Nal]-[a-MeLys]-[Lys(Ac)]-N-R-NH2; Pen-Pen disulfide
B14: Peptide of SEQ ID NO: 244 (peptide)
peptide: XNTXKXXXXKNL
modifications: Ac-[Pen]-NT-[W(7-Me)]-[Lys(Ac)]-[Pen]-Phe[4-(2-aminoethoxy)]-[2-Nal]-[a-MeLys]-[Lys(Ac)]-N-L-NH2; Pen-Pen disulfide
B15: Peptide of SEQ ID NO: 246 (peptide)
peptide: XNTXKXXXXKNX
modifications: Ac-[Pen]-NT-[W(7-Me)]-[Lys(Ac)]-[Pen]-Phe[4-(2-aminoethoxy)]-[2-Nal]-[a-MeLys]-[Lys(Ac)]-N-[NMeArg]-NH2; Pen-Pen disulfide
B16: Peptide of SEQ ID NO: 249 (peptide)
peptide: XNTXKXXXXKNX
modifications: Ac-[Pen]-NT-[W(7-Me)]-[Lys(Ac)]-[Pen]-Phe[4-(2-aminoethoxy)]-[2-Nal]-[a-MeLys]-[Lys(Ac)]-N-[Cit]-NH2; Pen-Pen disulfide
B17: Peptide of SEQ ID NO: 250 (peptide)
peptide: XNTXKXXXXKNV
modifications: Ac-[Pen]-NT-[W(7-Me)]-[Lys(Ac)]-[Pen]-Phe[4-(2-aminoethoxy)]-[2-Nal]-[a-MeLys]-[Lys(Ac)]-N-V-NH2; Pen-Pen disulfide
B18: Peptide of SEQ ID NO: 253 (peptide)
peptide: XNTXKXXXXKNP
modifications: Ac-[Pen]-NT-[W(7-Me)]-[Lys(Ac)]-[Pen]-Phe[4-(2-aminoethoxy)]-[2-Nal]-[a-MeLys]-[Lys(Ac)]-N-P-NH2; Pen-Pen disulfide

What follows are binders tested against T1, interleukin-23 receptor (IL-23R) (assay: cell-based or functional assay).

Point of comparison: B6, “pStat3 HTRF IC50” value 23.1 nM. Against it:
- Ac-[Pen]NT[Trp(7-Me)][Cit][Pen][AEF][2Nal][αMeK]K(Ac)N[Aib][dR]-NH2 (disulfide 1-6 (inferred)) [Peptide of SEQ ID NO: 345] — lower, 0.639 nM
- Ac-[Pen]NT[Trp(7-Me)][Cit][Pen][AEF][2Nal][αMeK]K(Ac)N[Aib][dF]-NH2 (disulfide 1-6 (inferred)) [Peptide of SEQ ID NO: 346] — lower, 0.784 nM
- Ac-[Pen]NT[Trp(7-Me)][Cit][Pen][AEF][2Nal][αMeK]K(Ac)N[Aib][dY]-NH2 (disulfide 1-6 (inferred)) [Peptide of SEQ ID NO: 347] — lower, 0.637 nM
- Ac-[Pen]NT[Trp(7-Me)][Cit][Pen][AEF][2Nal][αMeK]K(Ac)N[Aib][d2Nal]-NH2 (disulfide 1-6 (inferred)) [Peptide of SEQ ID NO: 348] — lower, 5.02 nM
- B1 — lower, 11.3 nM
- B2 — higher, 93.7 nM
- B3 — higher, 195 nM
- B4 — lower, 5.02 nM
- B5 — higher, 25.7 nM
- B7 — lower, 5.85 nM
- B8 — higher, > 1 µM
- B9 — lower, 3.39 nM
- B10 — lower, 1.75 nM
- B11 — lower, 17.7 nM
- B12 — lower, 12.5 nM
- B13 — lower, 1.87 nM
- B14 — lower, 1.45 nM
- B15 — lower, 4.83 nM
- B16 — lower, 0.639 nM
- B17 — lower, 1.82 nM
- B18 — lower, 1.44 nM
